Results: patent publication US20210388105A1 (ELPISCIENCE SUZHOU BIOPHARMA, published 2021)
Changes are numbered by the printed parent chain.

Columns and labels:
[1] = target: T1, KW27-20 (human CD39 mutant, C-terminal EGFP) (human, UniProt P49961 1-510); experiment: FACS, mutant-EGFP on HEK293F cells
T1 construct: expressed on HEK293F cells; not shown: C-terminal EGFP fusion (vector pCMV3-GFPSpark)
T1 chain: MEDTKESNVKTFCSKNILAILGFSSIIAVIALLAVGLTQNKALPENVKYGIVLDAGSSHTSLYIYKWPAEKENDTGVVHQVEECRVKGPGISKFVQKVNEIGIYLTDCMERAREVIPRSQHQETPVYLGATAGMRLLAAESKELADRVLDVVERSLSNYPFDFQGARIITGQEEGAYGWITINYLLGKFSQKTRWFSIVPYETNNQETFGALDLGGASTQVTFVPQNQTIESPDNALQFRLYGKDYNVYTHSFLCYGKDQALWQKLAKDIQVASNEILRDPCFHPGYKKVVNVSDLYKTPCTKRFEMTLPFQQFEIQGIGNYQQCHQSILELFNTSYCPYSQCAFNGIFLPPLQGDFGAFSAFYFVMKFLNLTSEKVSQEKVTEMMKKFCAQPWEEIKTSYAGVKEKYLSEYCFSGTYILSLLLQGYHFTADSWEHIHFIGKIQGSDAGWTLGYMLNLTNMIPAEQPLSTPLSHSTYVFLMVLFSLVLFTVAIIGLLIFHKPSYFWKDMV
Outline: (§1)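 Relative binding, the ratio of AlexaFluor647 to GFP signal, was read by flow cytometry with labelled anti-hIgG. Antibody ran as an 11-point, 3-fold series starting at 100 nM. Targets were CD39 mutant–GFP fusions expressed transiently in HEK293F cells for 3 days.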

[2] = target: T2, KW27-2 (human CD39 mutant, C-terminal EGFP) (human, UniProt P49961 1-510); experiment: FACS, mutant-EGFP on HEK293F cells
T2 construct: expressed on HEK293F cells; not shown: C-terminal EGFP fusion (vector pCMV3-GFPSpark)
T2 chain: T1 chain with V81S, E82A, R111A, V115A, A138R, A139M, K142E
Outline: as §1

B1: hu23.H5L5 (antibody, V domains shown)
VH: QVQLVQSGAEVKKPGASVKVSCKASGYNLKDTFLHWVRQAPGQGLEWMGRIDPANGNIKYDPKFQGRVTITADTSANTAYMELISLRSEDTAVYYCANSPYYYGSGYRIFDVWGQGTTVTVSS
VL: QIVLTQSPATLSLSPGERATLSCSAFSSVNYMHWYQQKPGQAPRLLIYTTSNLASGIPTRFSGSGSGTSYTLTISSLEPEDFAVYYCQQRSTYPFTFGQGTKLEIK
notes: humanized c23
- binding result [1]: no binding (tested: 100 nM highest concentration)

B2: c35 (antibody, V domains shown)
VH: EVRLQQSGAELVKPGASVKLSCTASGFNIEDTYVHWMKQRPEQGLEWIGRIDPAIDNSKYDPKFQGKATITAVSSSNTAYLQLSSLTSEDTAVYYCALYDGYNVYAMDYWGQGTSVTVSS
VL: DIVMTQAAFSNPVTLGTSASISCRSSKNLLHSNGITYLYWYLQRPGQSPQLLIYRASTLASGVPNRFSGSESGTDFTLRISRVEAEDVGVYYCAQLLELPHTFGGGTKLEIK
notes: its making is not described; also called chimeric antibody c35
- binding result [2]: no binding (tested: 100 nM highest concentration)
